Results published in PMC9781295.

How the values were obtained:
[1] = biological target: GlyT1b L288C, N-terminal FLAG-tagged (human); assay: cross-linking; oxidative cross-linking on intact HEK293 cells with copper phenanthroline (CuP, 1-100 μM) for 15 min at 22 °C in HEPES buffered saline, quenched with 10 mM N-ethylmaleimide; lysates in non-reducing sample buffer, anti-FLAG immunoblot; also with ZnCl2, NMDGCl, Na+, glycine, bitopertin or LY2365109 present, or 100 mM DTT on the lysates
[2] = biological target: GlyT1b L288C, N-terminal FLAG-tagged (human)

maximally increased % dimer fraction (CuP 1 to 100 μM) [1]: 55.9%
stoichiometry N [1]: 2
[3H]glycine uptake after CuP treatment (1 to 100 μM), transport activity remaining at the highest CuP concentration, % of control without CuP [2]: 54 % of control
Substance: GlyT1b L288C, N-terminal FLAG-tagged (natural protein)
